Test results: patent publication US20220195023A1
Residue numbers refer to the chain shown, from its start.

B1: AB-007040 (antibody, V domains shown)
VH: QMQLVESGGGVVQPGRSLRLSCTASGFTFSTYAMHWVRQSPGQGLQWVAVISYHSTNKYYEDSVRGRFTISRDNSKNTLYLQMNSLRAEDTAVYYCARDGYSSSFFDFWGQGTLVTVSS
VL: DIQMTQSPSTLSASVGDRVAITCRASQSISRWLAWYQQQPGKAPKLLMSGASVLESGVPSRFSGSGSGTEFTLTISSLQPDDFATYYCQHYNSYYVTFGQGTKVEIK
B2: AB-007051 (antibody, V domains shown)
VH: B1 VH with T56R
VL: B1 VL with Y95F
B3: AB-007041 (antibody, V domains shown)
VH: B1 VH with T31D
VL: B1 VL with Y95F
B4: AB-007044 (antibody, V domains shown)
VH: B1 VH with D62E
VL: B1 VL with Y95F
B5: AB-007047 (antibody, V domains shown)
VH: B1 VH with T31N
VL: B1 VL with Y95F
B6: AB-007042 (antibody, V domains shown)
VH: B1 VH
VL: B1 VL with S28D, Y95F
B7: AB-007046 (antibody, V domains shown)
VH: B1 VH
VL: B1 VL with N92Y, Y95F
B8: AB-007043 (antibody, V domains shown)
VH: B1 VH
VL: B1 VL with S56D, Y95F
B9: AB-007049 (antibody, V domains shown)
VH: B1 VH with Y53N, S55E
VL: B1 VL with Y95F
B10: AB-007057 (antibody, V domains shown)
VH: B1 VH with S102H
VL: B1 VL with Y95F
B11: AB-007052 (antibody, V domains shown)
VH: B1 VH with T56N
VL: B1 VL with Y95F
B12: AB-007054 (antibody, V domains shown)
VH: B1 VH with S102A
VL: B1 VL with Y95F

Target: (NANP)6 (Plasmodium falciparum)
Assay: SPR, antibody on chip

B1 and B2 are within 1.5-fold of each other in Kd: 0.344 nM for the first, 0.507 nM for the second.

Going from B3 to B4, the Kd falls from 0.246 nM to 0.139 nM (1.8-fold). The second binds more tightly here.

Going from B5 to B6, the Kd rises from 0.156 nM to 0.998 nM (6.4-fold).

B7 and B8 are within 1.5-fold of each other in Kd: 1.27 nM for the first, 1.11 nM for the second.

Compared with B9, B10 is 2.2-fold lower in Kd: 0.092 nM for the first, 0.0419 nM for the second.

B11 and B12 are within 1.5-fold of each other in Kd: 0.0442 nM for the first, 0.0552 nM for the second.

Target: (NVDP)3(NANP)2 (Plasmodium falciparum)
Assay: SPR, antibody on chip

B1 and B2 are within 1.5-fold of each other in Kd: 3110 nM for the first, 2490 nM for the second.

First: B3
Second: B4
The Kd of the first is 1.8-fold higher: 3930 nM for the first, 2240 nM for the second.

First: B5
Second: B6
The Kd of the first is 1.6-fold higher: 3680 nM for the first, 2310 nM for the second.

B7 and B8 are within 1.5-fold of each other in Kd: 2810 nM for the first, 2590 nM for the second.

B9 and B10 are within 1.5-fold of each other in Kd: 7140 nM for the first, 9090 nM for the second.

Going from B11 to B12, the Kd rises from 2560 nM to 5670 nM (2.2-fold).

Target: … (Plasmodium falciparum)
Assay: SPR, antibody on chip

Going from B1 to B2, the Kd rises from 3730 nM to 8840 nM (2.4-fold). The first binds more tightly here.

Compared with B3, B4 is 5-fold higher in Kd: 2520 nM for the first, 12700 nM for the second.

B5 and B6 are within 1.5-fold of each other in Kd: 9370 nM for the first, 11700 nM for the second.

B7 and B8 are within 1.5-fold of each other in Kd: 11600 nM for the first, 16300 nM for the second.

First: B9
Second: B10
The Kd of the first is 6.8-fold lower: 2950 nM for the first, 20100 nM for the second. The first binds more tightly here.

First: B11
Second: B12
The Kd of the first is 2.5-fold lower: 7140 nM for the first, 17600 nM for the second.

Target: (NPNA)3 (Plasmodium falciparum)
Assay: SPR, antibody on chip

Compared with B1, B2 is 1.8-fold lower in Kd: 9.5 nM for the first, 5.19 nM for the second. The second binds more tightly here.

B3 and B4 are within 1.5-fold of each other in Kd: 5.64 nM for the first, 7.96 nM for the second.

Compared with B5, B6 is 1.6-fold lower in Kd: 11.4 nM for the first, 7.04 nM for the second. The second binds more tightly here.

B7 and B8 are within 1.5-fold of each other in Kd: 10.3 nM for the first, 7.51 nM for the second.

First: B9
Second: B10
The Kd of the first is 1.6-fold lower: 25.8 nM for the first, 40.3 nM for the second. The first binds more tightly here.

Going from B11 to B12, the Kd rises from 6.31 nM to 10.5 nM (1.7-fold). The first binds more tightly here.

Target: NANPNVDP (Plasmodium falciparum)
Assay: BLI, target on sensor

B1 and B2 are within 1.5-fold of each other in Kd: 9.56 nM for the first, 6.57 nM for the second.

B3 and B4 are within 1.5-fold of each other in Kd: 12.1 nM for the first, 8.61 nM for the second.

B5 and B6 are within 1.5-fold of each other in Kd: 10 nM for the first, 8.56 nM for the second.

B7 and B8 are within 1.5-fold of each other in Kd: 11.1 nM for the first, 10.4 nM for the second.

B9 and B10 are within 1.5-fold of each other in Kd: 21.2 nM for the first, 15.3 nM for the second.

First: B11
Second: B12
The Kd of the first is 1.9-fold lower: 7.34 nM for the first, 13.7 nM for the second. The first binds more tightly here.

Target: (NANP)6 (Plasmodium falciparum)
Assay: BLI, target on sensor

Going from B1 to B2, the Kd rises from 0.56 nM to 1.08 nM (1.9-fold). The first binds more tightly here.

Going from B3 to B4, the Kd rises from 0.47 nM to 0.85 nM (1.8-fold). The first binds more tightly here.

Going from B5 to B6, the Kd falls from 1.32 nM to 0.0276 nM (48-fold). The second binds more tightly here.

First: B7
Second: B8
The Kd of the first is 8.8-fold higher: 2.58 nM for the first, 0.293 nM for the second. The second binds more tightly here.

Going from B9 to B10, the Kd rises from 0.576 nM to 0.976 nM (1.7-fold). The first binds more tightly here.

Going from B11 to B12, the Kd rises from 0.392 nM to 1.72 nM (4.4-fold). The first binds more tightly here.

Target: (NVDP)3(NANP)2 (Plasmodium falciparum)
Assay: BLI, target on sensor

B1 and B2 are within 1.5-fold of each other in Kd: 4.67 nM for the first, 4.89 nM for the second.

B3 and B4 are within 1.5-fold of each other in Kd: 6.65 nM for the first, 5.99 nM for the second.

Compared with B5, B6 is 2.1-fold lower in Kd: 8.11 nM for the first, 3.9 nM for the second. The second binds more tightly here.

Compared with B7, B8 is 2.2-fold lower in Kd: 11.6 nM for the first, 5.2 nM for the second. The second binds more tightly here.

B9 and B10 are within 1.5-fold of each other in Kd: 13 nM for the first, 11.2 nM for the second.

Compared with B11, B12 is 1.6-fold higher in Kd: 6.28 nM for the first, 10.2 nM for the second. The first binds more tightly here.

Target: … (Plasmodium falciparum)
Assay: BLI, target on sensor

B1 and B2 are within 1.5-fold of each other in Kd: 4.17 nM for the first, 3.23 nM for the second.

Compared with B3, B4 is 1.6-fold lower in Kd: 5.57 nM for the first, 3.47 nM for the second.

Going from B5 to B6, the Kd falls from 5.43 nM to 2.99 nM (1.8-fold). The second binds more tightly here.

Compared with B7, B8 is 1.9-fold lower in Kd: 9.15 nM for the first, 4.87 nM for the second.

B9 and B10 are within 1.5-fold of each other in Kd: 12.3 nM for the first, 10.5 nM for the second.

Going from B11 to B12, the Kd rises from 3.83 nM to 8.5 nM (2.2-fold). The first binds more tightly here.

Target: (NPNA)3 (Plasmodium falciparum)
Assay: BLI, target on sensor

Compared with B1, B2 is 1.8-fold higher in Kd: 0.337 nM for the first, 0.591 nM for the second. The first binds more tightly here.

Compared with B3, B4 is 1.6-fold higher in Kd: 0.145 nM for the first, 0.239 nM for the second.

First: B5
Second: B6
The Kd of the first is 180-fold higher: 0.567 nM for the first, 0.00314 nM for the second.

First: B7
Second: B8
The Kd of the first is 460-fold higher: 1.57 nM for the first, 0.00341 nM for the second.

B9 and B10 are within 1.5-fold of each other in Kd: 0.326 nM for the first, 0.311 nM for the second.

Going from B11 to B12, the Kd rises from 0.0169 nM to 0.61 nM (36-fold). The first binds more tightly here.
